By Kd is commonly meant a measure of binding affinity in units of concentration. Broadly, the kon is a measure of how fast the partners come together. As usually defined, the koff is a measure of how fast the partners let go of each other.

Bounds are passed on as bounds.

The source of these data is US20170114130A1 (University of California, published 2017).

The target of assay [1] is human IL-2 (recombinant IL-2, Humanzyme) (human) (UniProt P60568). Briefly: SPR (Biacore T200), antibody captured on anti-mouse IgG, IL-2 injected; calculated with the assumed off-rate limit.
The target is the same in assay [2]. As to the kind of experiment: SPR, human IL-2; the value repeats Table 3 (assumed off-rate limit). A general note: SPR reads the build-up and loss of mass on a sensor chip optically.
For assay [3] the target is unchanged. Briefly: SPR (Biacore T200), antibody captured on anti-mouse IgG, IL-2 injected, 25 C, 1:1 Langmuir fit.
For assay [4], the target named is recombinant cynomolgus monkey (Macaca fascicularis) IL-2 (cynomolgus monkey (Macaca fascicularis)) (UniProt Q29615). Briefly: SPR as in Example 1, cynomolgus IL-2 1-100 nM, 1:1 Langmuir or steady-state fit.
For assay [5], the target named is human IL-2 (recombinant IL-2, Humanzyme) (human) (UniProt P60568). Briefly: SPR (Biacore T200), antibody captured on anti-mouse IgG, IL-2 injected; off-rate outside the specifications of the instrument, assumed limit.
Another assay deals with T1, d1C7/IL-2 complex (human, UniProt P60568 21-153).
T1 construct: Non-covalent complex: IL-2 (333 nM) pre-incubated with d1C7 IgG (1000 nM) for at least 20 minutes; also called clone d1C7/IL-2 complex
As to the kind of experiment: SPR (Biacore T200), complex injected over biotinylated receptor on streptavidin chip. The method, then:
Experiments were performed at 25° C. using a 10 μL/minute flow rate in 10 mM HEPES (pH 7.4), 150 mM NaCl and 0.005% v/v Surfactant P20 buffer. […] Data was background subtracted using the adjacent control flow cell and buffer only injections.

A further assay has as its target T2, IL-2/F5.1.11 Fab complex (human, UniProt P60568 21-153).
T2 construct: also called F5.1.11/IL-2
Briefly: SPR (Biacore T200), 1-500 nM IL-2 pre-complexed with excess Fab over biotinylated IL-2Rα, equilibrium analysis. How it is done: Experiments were performed at 25° C. using a 10 μL/minute flow rate in 10 mM HEPES (pH7.4), 150 mM NaCl and 0.005% v/v Surfactant P20 buffer. […] Data was background subtracted using the adjacent control flow cell and buffer only injections. The affinity of the interaction was calculated from concentration-response relationship at equilibrium.

Sequence of human IL-2 (recombinant IL-2, Humanzyme) (human) (P60568 21-153 limits assumed): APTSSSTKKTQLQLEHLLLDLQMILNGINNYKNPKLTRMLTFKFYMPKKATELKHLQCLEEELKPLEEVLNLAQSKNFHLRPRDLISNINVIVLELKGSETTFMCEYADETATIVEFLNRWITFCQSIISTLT
Sequence of recombinant cynomolgus monkey (Macaca fascicularis) IL-2 (cynomolgus monkey (Macaca fascicularis)) (Q29615 21-154 limits assumed): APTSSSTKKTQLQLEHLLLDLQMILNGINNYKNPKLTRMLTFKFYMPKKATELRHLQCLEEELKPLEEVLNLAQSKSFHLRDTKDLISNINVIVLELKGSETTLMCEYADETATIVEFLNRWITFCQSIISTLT
T1 sequence (VH, as listed by the source limits assumed, chain 1 of 3): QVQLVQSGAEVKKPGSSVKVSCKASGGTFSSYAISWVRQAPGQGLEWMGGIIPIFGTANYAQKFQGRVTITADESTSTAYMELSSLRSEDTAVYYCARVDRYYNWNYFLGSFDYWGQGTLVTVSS
T1 sequence (VL, as listed by the source limits assumed, chain 2 of 3): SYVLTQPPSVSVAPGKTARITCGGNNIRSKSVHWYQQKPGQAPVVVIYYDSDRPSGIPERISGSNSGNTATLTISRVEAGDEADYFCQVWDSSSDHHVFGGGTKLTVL
T1 sequence (P60568 21-153 limits assumed, chain 3 of 3): as the sequence (P60568 21-153 limits assumed) above
T2 sequence (VH, as listed by the source limits assumed, chain 1 of 3): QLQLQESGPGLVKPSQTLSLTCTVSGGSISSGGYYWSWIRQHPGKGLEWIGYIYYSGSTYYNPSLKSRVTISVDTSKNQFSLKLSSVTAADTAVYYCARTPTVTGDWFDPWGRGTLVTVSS
T2 sequence (VL, as listed by the source limits assumed, chain 2 of 3): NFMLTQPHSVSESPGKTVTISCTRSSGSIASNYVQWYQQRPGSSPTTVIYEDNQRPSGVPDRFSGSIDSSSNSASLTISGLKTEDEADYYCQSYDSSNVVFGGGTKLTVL
T2 sequence (P60568 21-153 limits assumed, chain 3 of 3): as the sequence (P60568 21-153 limits assumed) above

Turning to “mouse anti-human IL-2 clone 5344 (clone 5344.111, BD Biosciences) (antibody)”, the Kd is < 0.05 nM in assay [1], < 0.05 nM in assay [2] and > 50 nM in assay [4]. Besides, the kon in assay [3] was 1.02e+06 M⁻¹ s⁻¹. Also, the koff in assay [5] was < 5e-05 s⁻¹.

B1: recombinant IL-2Rβ, biotin labeled (receptor, UniProt P14784 27-240, looked up)
chain: AVNGTSQFTCFYNSRANISCVWSQDGALQDTSCQVHAWPDRRRWNQTCELLPVSQASWACNLILGAPDSQKLTTVDIVTLRVLCREGVRWRVMAIQDFKPFENLRLMAPISLQVVHVETHRCNISWEISQASHYFERHLEFEARTLSPGHTWEEAPLLTLKQKQEWICLETLTPDTQYEFQVRVKPLQGEFTTWSPWSQPLAFRTKPAALGKDT
modifications: biotin labeled (site not stated)
notes: also called CD122
For the molecule B1, the binding result with d1C7/IL-2 complex is recorded as “no binding (tested: IL-2 333 nM with IgG 1000 nM)”.

B2: recombinant IL-2Rα, biotin labeled (receptor, UniProt P01589 22-240, looked up)
chain: ELCDDDPPEIPHATFKAMAYKEGTMLNCECKRGFRRIKSGSLYMLCTGNSSHSSWDNQCQCTSSATRNTTKQVTPQPEEQKERKTTEMQSPMQPVDQASLPGHCREPPPWENEATERIYHFVVGQMVYYQCVQGYRALHRGPAESVCKMTHGKTRWTQPQLICTGEMETSQFPGEEKPQASPEGRPESETSCLVTTTDFQIQTEMAATMETSIFTTEYQ
modifications: biotin labeled (site not stated)
notes: also called IL-2α; IL-2a
In the case of B2, in the assay with IL-2/F5.1.11 Fab complex, the Kd came out at 70.1 nM.
